This assay has as its target T1, purified human complement factor H from human plasma/serum (human, UniProt P08603 19-1231).
T1 construct: human complement factor H, serum glycoprotein of 20 SCR domains (NCBI gene number 3075); also called FH; Human purified FH; source: bought: Sigma/Merck C5813 (batch SLCP3577), purified from human plasma; provided by Prof; Clark
Kind of assay: SPR; Biacore T100, CM5 chip; FH (750 RU), rFHL-1 or rFH15-20 (200 RU) amine-coupled as ligands; CspZ or FhbA as analytes; PBS with 0.05% Tween20, 25 °C, 30 µl/min; single-cycle and multiple-cycle kinetics, Langmuir 1:1 model; in duplicate. Particulars: both partners purified.

Here are results for 1 molecule from publication PMC11266248, “Production, purification, and quality assessment of borrelial proteins CspZ from Borrelia burgdorferi and FhbA from Borrelia hermsii” (Applied Microbiology and Biotechnology, 2024).

T1 sequence (P08603 19-1231): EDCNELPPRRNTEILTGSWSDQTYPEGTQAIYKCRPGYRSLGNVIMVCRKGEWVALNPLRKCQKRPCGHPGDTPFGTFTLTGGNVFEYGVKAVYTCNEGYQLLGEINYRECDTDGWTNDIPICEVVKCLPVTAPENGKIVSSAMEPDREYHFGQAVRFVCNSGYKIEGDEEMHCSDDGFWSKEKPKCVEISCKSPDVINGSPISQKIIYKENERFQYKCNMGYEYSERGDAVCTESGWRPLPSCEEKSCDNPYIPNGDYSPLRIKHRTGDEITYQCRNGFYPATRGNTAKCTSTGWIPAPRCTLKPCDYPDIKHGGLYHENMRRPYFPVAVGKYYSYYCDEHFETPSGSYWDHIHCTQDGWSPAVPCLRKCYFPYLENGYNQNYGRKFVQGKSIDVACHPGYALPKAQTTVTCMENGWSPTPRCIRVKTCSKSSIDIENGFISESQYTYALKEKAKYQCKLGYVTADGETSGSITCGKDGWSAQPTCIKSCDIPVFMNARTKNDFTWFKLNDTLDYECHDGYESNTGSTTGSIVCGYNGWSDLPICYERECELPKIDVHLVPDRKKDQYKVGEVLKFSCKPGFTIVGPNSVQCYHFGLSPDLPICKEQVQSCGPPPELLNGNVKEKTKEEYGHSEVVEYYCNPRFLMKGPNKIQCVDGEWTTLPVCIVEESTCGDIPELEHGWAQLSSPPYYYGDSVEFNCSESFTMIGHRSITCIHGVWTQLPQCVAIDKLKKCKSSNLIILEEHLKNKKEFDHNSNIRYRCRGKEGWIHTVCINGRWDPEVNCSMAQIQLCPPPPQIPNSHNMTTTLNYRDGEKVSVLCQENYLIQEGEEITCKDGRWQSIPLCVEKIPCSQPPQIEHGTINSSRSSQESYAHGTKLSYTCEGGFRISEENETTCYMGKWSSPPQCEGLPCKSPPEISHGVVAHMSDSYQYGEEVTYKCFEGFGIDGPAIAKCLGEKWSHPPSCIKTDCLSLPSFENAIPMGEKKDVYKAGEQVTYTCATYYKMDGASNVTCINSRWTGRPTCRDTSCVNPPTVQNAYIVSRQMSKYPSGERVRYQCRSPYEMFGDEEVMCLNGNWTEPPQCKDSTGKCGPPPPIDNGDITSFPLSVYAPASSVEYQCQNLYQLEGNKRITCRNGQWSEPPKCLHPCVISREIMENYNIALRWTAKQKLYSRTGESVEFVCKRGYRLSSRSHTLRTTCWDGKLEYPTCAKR

B1: CspZ from Borrelia burgdorferi sensu stricto (complement regulator-acquiring surface protein 2) (natural protein)
chain: DVSRLNQRNINELKIFVEKAKYYSIKLDAIYNECTGAYNDIMTYSEGTFSDQSKVNQAISIFKKDNKIVNKFKELEKIIEEYKPMFLSKLIDDFAIELDQAVDNDVSNARHVADSYKKLRKSVVLAYIESFDVISSKFVDSKFVEASKKFVNKAKEFVEENDLIALECIVKTIGDMVNDREINSRSRYNNFYKKEADFLGAAVELEGAYKAIKQTLL
notes: CspZ (BbCRASP-2/BBH06), surface lipoprotein of Borrelia burgdorferi sensu stricto (NCBI txid139), encoded by cspZ on lp28-3; theoretical mass of the tagged protein 27.5 kDa, measured mass fits the predicted value without the N-terminal methionine; Two plasmids coding for N-terminally His6-tagged CspZ are named (pET-45(+) from Prof. Marconi, pETM-11 from Dr. Brangulis); also called BbCRASP-2; …
Molecule B1 had a Kd of 0.209 ± 0.141 nM, a dissociation rate constant (koff) of 5.31e-05 s⁻¹ and a kon of 255000 M⁻¹ s⁻¹.
